Bridge positions count the residues as written; N and C are the ends. Ends that are not written are not given here.
Target: 447-52D Fv fragment
Test: fluorescence quenching of 447Fv upon titration with the peptide

Binder: CRKSIHCGPGRCFYTTGC (disulfide 1-18, 7-12) [R5A-M1 peptide (disulfide-constrained R5A mimic peptide 1)]
- Kd: 10 nM
